We go through 167 variants from the RNAGym collection of RNA variant scans (doi:10.7554/elife.90254).

The chains are these.
B1: OR4K15 (parent)
chain: GUUAACGGUCAUAGGCCAUGGAAACUAGGAGCACCAUUUCGCUGCCAGUGAAGAAAUGAACAAAGAAAAUCUGGGCCAGGCAGGCAUCAAAAGAAAUAGUCUUGCGCUCAACCAGAAAGUCUGUAAUCAUUUUAAGGGUA

In the data set the parent is B1. The data set can be described thus: self-cleavage, relative activity (ratio to wild type); higher = more cleavage; in vitro, sequencing; the parent is a self-cleaving ribozyme.
For A89G C113G, the self-cleavage amounted to 0.01. As to A67G A134U, the self-cleavage came out at 1.12. Then A66G A89G, with 1.62; and G14A A63U, with 1.23; and A54G A110U, with 1.71. Turning to U127A A134G, the self-cleavage was 2.3. Turning to C76U U102C, the self-cleavage came out at 0.1. The value for A51G U87A was 1.3. Turning to U12C U38C, the self-cleavage is 1.73. In the case of U87A U108C, the self-cleavage stood at 0.02. Then G123A A129C, with 0.92. Then A68G A69U, with 1.38.

With A69C U120C, the self-cleavage was found to be 0.7. The value for A56G U124A was 0.78; that for A36G A91U was 1.95. For the variant A59C U103C, the self-cleavage came to 0.57. The value for A11G U57C was 0.63; that for A18U A82G was 0.46. Then A63G, with 1.41; and A62G C85U, with 0.63. Then U12A A135U, with 1.29; and A68G G136A, with 1.44; and A13C U139C, with 1.48. As to U108C A135U, the self-cleavage is 0.01. Then G7U A11G, with 1.63. As to G1U U87C, the self-cleavage was found to be 0.27.

Consider U3C U26C, for which the self-cleavage stood at 1.29. Then A33G A67G, with 1.06; and A63C A140G, with 1.96; and A55G A62G, with 0.75.

As to A56G A118C, the self-cleavage is 0.64. On to A47U A114G, for which the self-cleavage stood at 0.21. As for C35U U102A, the self-cleavage was 0.81. The value for U3A U130G was 0.73; that for U19C A89G was 1.5; that for G115C was 0.14.

As to U9C A59U, the self-cleavage was determined as 1.48. With A24G C77U, the self-cleavage turned out to be 1.55.

As to A18U C88U, the self-cleavage turned out to be 0.43. With A24G A111C, the self-cleavage amounted to 0.02. For the variant A63U U72C, the self-cleavage was 0.41.

As for A22U G83A, the self-cleavage is 0.93. Then A94U A126G, with 1.84.

As for G115A U124C, the self-cleavage amounted to 0.05. Consider A118U A135C, for which the self-cleavage was determined as 0.3. The value for A86G A129G was 0.22. The value for C6A A67G was 0.72.

As for A51C A68G, the self-cleavage was 1.2. G41C A111G: the self-cleavage is 0.02. With A33G U127C, the self-cleavage is 0.23. The value for A33U C112U was 0.01. Then A60G A64U, with 1.46; and A4G A56U, with 0.65. Then U19C C88A, with 2.03; and C35U A95C, with 0.87. As to A118G U124C, the self-cleavage was determined as 1.37. Then U2G A135G, with 0.69. As for U9C A78G, the self-cleavage turned out to be 0.32. Then U39A A86G, with 1.76. Then C32U U124C, with 1.15; and A11G U97G, with 0.34; and A54G A86G, with 1.28. Then A78U C105U, with 0.03.

With C17U U43A, the self-cleavage worked out at 1.18. Then A89G A114U, with 0.12; and A59U U131C, with 1.25; and A18G A114U, with 0.14. Then A86G A125G, with 0.45; and U37C U70A, with 1.1.

Regarding U37C G48A, the self-cleavage was 1.59.

Take A33G U120C: the self-cleavage was found to be 0.53. Take A90G G104A: the self-cleavage was 0.02. With U49C U132G, the self-cleavage was 0.91. Then A52G A67G, with 1.13.

Take A33U G104A: the self-cleavage was 0.01. Then A68G A96U, with 2.13. As to A111G A114U, the self-cleavage worked out at 0.

As to A23G C42G, the self-cleavage worked out at 1.11. The value for A59C U127C was 1.18.

G84C A94G: the self-cleavage turned out to be 0.32. A111G C121A: the self-cleavage was 0.03. As for A27G A54G, the self-cleavage was found to be 1.37. The value for A60U A116G was 1.37.

On to A52G C77A, for which the self-cleavage was 1.2. In the case of A18G A129G, the self-cleavage worked out at 1.25. As for U122C U130C, the self-cleavage was found to be 0.64.

With A4G U127C, the self-cleavage came out at 0.38.

Take A11G U87C: the self-cleavage is 1.14. The value for A36U A114U was 0.14; that for U87C C112G was 0.02. Regarding A67G A92C, the self-cleavage turned out to be 1.62. For the variant A18U U108A, the self-cleavage was 0.02. Then A66G A78U, with 0.5. The value for A23G G80A was 0.31; that for U19C U100C was 1.97. Then A94U A125C, with 1.08. Consider U100C C107G, for which the self-cleavage worked out at 0.01. In the case of U39C U130C, the self-cleavage amounted to 1.12. On to A5G C45A, for which the self-cleavage is 0.99. Turning to A30U A78U, the self-cleavage was found to be 0.2. On to A33U A125G, for which the self-cleavage turned out to be 0.99.

Turning to U103C U132C, the self-cleavage came to 0.85. G29U A62G: the self-cleavage worked out at 1.65. With A18U G28A, the self-cleavage came out at 1.78. With U39C C128A, the self-cleavage was 0.73. On to G48A A56G, for which the self-cleavage was found to be 1.34. For the variant U120C U139G, the self-cleavage worked out at 1.36. For the variant G99A U130C, the self-cleavage turned out to be 0.13. For U39C C45U, the self-cleavage was determined as 1.46.

For the variant A118G U122C, the self-cleavage was 1.04. Then U39A U127A, with 1.46. For the variant A5U U139C, the self-cleavage turned out to be 0.93. The value for A11G A24G was 1.02; that for U49A A52G was 0.96; that for A27G U131G was 1.09.

Take A56G U108A: the self-cleavage worked out at 0.02. The value for A27U A59U was 1.64; that for A47G U49A was 1.06; that for C35A G99U was 0.79.

A47U A110G: the self-cleavage was 0.05. With A24G A117G, the self-cleavage was determined as 1.45.

For A60G A118C, the self-cleavage was 0.74.

Take A18G U57G: the self-cleavage is 1.21. Then A67U A69U, with 1.69. The value for U26A A63U was 2.02; that for A4G A91U was 1.36; that for U57G A110G was 0.17.

As for A91G U124A, the self-cleavage was found to be 1.78. Then U70C A89U, with 1.17; and A114U A125U, with 0.08. Then A68U U87C, with 1.78; and U130C U132C, with 1.17; and A5U C109U, with 0.68.

On to U2A A114G, for which the self-cleavage came to 0.67.

With A96G A98C, the self-cleavage came to 0.63.

Take G20A A59G: the self-cleavage was 1.19. Turning to U12A U38C, the self-cleavage worked out at 1.4.

Turning to A111U A134G, the self-cleavage is 0.03.

As for A56G C113U, the self-cleavage is 0.08. Then A18G A24G, with 1; and C76U A82G, with 0.09. On to A18G A30G, for which the self-cleavage is 0.88. In the case of U49C U131C, the self-cleavage was determined as 1.11. Regarding A22U A52G, the self-cleavage stood at 1.63. The value for U39A A135G was 1.75. The value for A56G U70A was 1.49. As for G53A U103C, the self-cleavage was 0.64. The value for A55G A66U was 0.64.

With A18C A111G, the self-cleavage was determined as 0.02. The value for A96G U130C was 0.97; that for U37C A68G was 1.25; that for A51G A125U was 1.72. Then G74U A82G, with 0.28; and A82U U120C, with 0.03. Then C25U U100C, with 2.01.

For A47U A60U, the self-cleavage was 0.75. With A69G U122C, the self-cleavage was found to be 0.43. Regarding U43A A55G, the self-cleavage amounted to 0.35. The value for G7A A111U was 0.04; that for A89U U132A was 1.35; that for U38C A82G was 0.57. As to C6G A126G, the self-cleavage was 1.2. On to A98U U122C, for which the self-cleavage stood at 2. The value for A4G U9C was 1.33. The value for A24G U130C was 1.38; that for A22G A55U was 1.26; that for A56C A68G was 1.59.
